Assay [1] concerns the target soluble methane monooxygenase hydroxylase component (sMMOH), (αβγ)2, from Methylosinus trichosporium OB3b (Methylosinus trichosporium OB3b) (UniProt P27353). The assay is described as follows: NMR titration.
Assay [2] has the same target. The assay is described as follows: NMR titration. The source holds these as a separate data set.
For assay [3] the target is unchanged. Put plainly: NMR titration. The source holds these as a separate data set.
Assay [4] has as its target MMOB (Methylococcus capsulatus) (UniProt P18797). Particulars: cited from earlier work.
Assay [5] has as its target MMOR (Methylococcus capsulatus) (UniProt P22868). Particulars: cited from earlier work.
The target in assay [6] is MMOB (Methylosinus trichosporium) (UniProt P27356). Put plainly: fluorescence quenching. The settings on record: cited from earlier work.
Assay [7] addresses MMOR (Methylosinus trichosporium) (UniProt Q53563). Particulars: cited from earlier work.

pKd: −log10 of the molar value. Where two headings read alike, the source gives them in different places.

A word on the pKd: it is the negative decadic logarithm of the Kd, by convention in mol/L. For the substance “methane monooxygenase reductase component (MMOR), unlabelled (from UniProt Q53563 1-340) (enzyme)”, the values for the pKd in assay [1] and in assay [3] were 7.22 and 7.05, respectively. Further, the results for the half dissociation value in assay [1] and in assay [2] were 9.1 µM and 13.7 µM, respectively.

As to sMMOH (diferric) (from UniProt P22869), the negative-log Kd (pKd) in assay [4] is 6.26; in assay [5], 6.05.

For sMMOH (diferric) (from UniProt P27353), the results for the pKd in assay [6] and in assay [7] were 7.17 and 8.00, respectively.

These data come from article PMC8345336.
